Molecular target: Langya virus fusion protein (LayV-F) ectodomain, uncleaved (Langya virus)
Experiment: cryo-EM structure

In the case of “Langya virus fusion protein (LayV-F) ectodomain, uncleaved (domain or fragment)”, the stoichiometry N is reported as 3.
